Values belong to the binder of their own block, whether it stands above or below them. Bridge positions count the residues as written; N and C are the ends.
Legend:
Experiment in all cases: cell-based or functional assay
[1] = molecular target: T1, Deubiquitinase OTUD6B, Q8N6M0
T1 chain: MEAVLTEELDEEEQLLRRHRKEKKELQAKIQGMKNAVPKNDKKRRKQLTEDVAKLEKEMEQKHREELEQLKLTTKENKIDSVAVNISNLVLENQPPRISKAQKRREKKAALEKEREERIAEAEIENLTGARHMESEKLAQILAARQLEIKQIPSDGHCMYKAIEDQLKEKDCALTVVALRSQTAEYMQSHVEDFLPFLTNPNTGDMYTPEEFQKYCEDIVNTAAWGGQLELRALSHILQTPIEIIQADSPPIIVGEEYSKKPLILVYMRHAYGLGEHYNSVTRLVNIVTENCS

Caspase-6, P55212 = molecular target: T2, Caspase-6, P55212
T2 chain: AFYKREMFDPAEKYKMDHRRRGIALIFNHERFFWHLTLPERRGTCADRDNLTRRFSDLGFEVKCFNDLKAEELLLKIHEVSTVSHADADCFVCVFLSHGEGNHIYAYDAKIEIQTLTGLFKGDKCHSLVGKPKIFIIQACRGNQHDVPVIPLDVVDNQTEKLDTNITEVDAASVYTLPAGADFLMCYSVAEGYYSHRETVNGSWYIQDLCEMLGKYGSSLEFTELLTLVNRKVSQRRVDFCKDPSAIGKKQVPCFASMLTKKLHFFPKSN

[2] = molecular target: T3, Ubiquitin carboxyl-terminal hydrolase 2, O75604
T3 chain: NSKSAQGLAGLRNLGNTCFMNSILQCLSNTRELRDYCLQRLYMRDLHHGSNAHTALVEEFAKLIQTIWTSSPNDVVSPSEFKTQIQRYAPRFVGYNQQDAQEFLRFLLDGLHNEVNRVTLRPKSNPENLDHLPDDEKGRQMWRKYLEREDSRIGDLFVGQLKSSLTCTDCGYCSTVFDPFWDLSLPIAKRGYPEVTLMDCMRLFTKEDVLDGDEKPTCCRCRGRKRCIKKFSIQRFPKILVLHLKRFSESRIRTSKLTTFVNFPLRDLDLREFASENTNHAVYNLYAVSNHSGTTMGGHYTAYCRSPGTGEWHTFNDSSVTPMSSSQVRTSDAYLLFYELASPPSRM

DPP7, Q9UHL4 = molecular target: DPP7, Q9UHL4
DPP9, Q86TI2 = molecular target: DPP9, Q86TI2
Chain of DPP9, Q86TI2 (Q86TI2 whole entry): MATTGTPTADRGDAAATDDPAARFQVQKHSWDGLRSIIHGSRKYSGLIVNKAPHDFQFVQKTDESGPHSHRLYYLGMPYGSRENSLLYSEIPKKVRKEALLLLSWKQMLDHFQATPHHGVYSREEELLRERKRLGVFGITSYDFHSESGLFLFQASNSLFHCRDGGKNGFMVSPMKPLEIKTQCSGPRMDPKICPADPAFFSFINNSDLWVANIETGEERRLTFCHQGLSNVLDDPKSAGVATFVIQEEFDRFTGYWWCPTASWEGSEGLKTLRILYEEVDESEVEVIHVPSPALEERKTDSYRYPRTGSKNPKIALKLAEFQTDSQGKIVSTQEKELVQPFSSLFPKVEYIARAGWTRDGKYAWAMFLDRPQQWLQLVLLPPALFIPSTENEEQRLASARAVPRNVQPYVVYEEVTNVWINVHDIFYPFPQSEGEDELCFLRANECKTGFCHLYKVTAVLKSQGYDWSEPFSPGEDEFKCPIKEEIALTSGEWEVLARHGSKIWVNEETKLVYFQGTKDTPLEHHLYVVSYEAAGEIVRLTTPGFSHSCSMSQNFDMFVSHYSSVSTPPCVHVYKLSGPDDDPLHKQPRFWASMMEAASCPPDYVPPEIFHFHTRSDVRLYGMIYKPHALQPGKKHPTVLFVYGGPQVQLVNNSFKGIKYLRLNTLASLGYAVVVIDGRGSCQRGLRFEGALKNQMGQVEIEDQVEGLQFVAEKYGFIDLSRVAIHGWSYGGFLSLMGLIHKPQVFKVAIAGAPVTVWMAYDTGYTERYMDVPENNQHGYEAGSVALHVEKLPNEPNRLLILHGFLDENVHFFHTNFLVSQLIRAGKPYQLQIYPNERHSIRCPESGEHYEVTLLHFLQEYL

Cathepsin L, P07711 = molecular target: Cathepsin L, P07711
Chain of Cathepsin L, P07711 (P07711 114-333 limits assumed): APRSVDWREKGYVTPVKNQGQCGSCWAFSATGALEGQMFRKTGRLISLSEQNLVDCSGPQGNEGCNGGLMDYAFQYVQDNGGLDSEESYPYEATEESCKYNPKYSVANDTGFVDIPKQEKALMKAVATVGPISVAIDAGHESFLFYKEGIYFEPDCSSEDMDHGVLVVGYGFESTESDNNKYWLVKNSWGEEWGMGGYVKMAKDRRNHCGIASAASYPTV

COX2(h) (human), P35354 = molecular target: T4, COX2(h) (human), P35354
T4 chain: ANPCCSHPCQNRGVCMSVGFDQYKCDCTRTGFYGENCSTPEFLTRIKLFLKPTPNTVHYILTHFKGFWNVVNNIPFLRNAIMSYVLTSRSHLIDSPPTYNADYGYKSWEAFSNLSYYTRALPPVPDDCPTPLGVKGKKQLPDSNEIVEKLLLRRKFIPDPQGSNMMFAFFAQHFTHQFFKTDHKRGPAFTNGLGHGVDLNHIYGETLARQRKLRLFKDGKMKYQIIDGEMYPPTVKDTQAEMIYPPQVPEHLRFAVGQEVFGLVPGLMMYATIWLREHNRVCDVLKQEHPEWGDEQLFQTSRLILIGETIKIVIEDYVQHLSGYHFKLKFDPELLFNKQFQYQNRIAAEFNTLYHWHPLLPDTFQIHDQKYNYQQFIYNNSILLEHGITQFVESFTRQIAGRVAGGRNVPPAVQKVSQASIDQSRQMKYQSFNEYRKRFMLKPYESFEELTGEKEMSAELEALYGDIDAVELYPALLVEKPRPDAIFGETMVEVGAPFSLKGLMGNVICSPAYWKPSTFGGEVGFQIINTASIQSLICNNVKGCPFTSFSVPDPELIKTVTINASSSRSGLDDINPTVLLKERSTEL

[3] = molecular target: Ubiquitin carboxyl-terminal hydrolase 10, Q14694
Chain of Ubiquitin carboxyl-terminal hydrolase 10, Q14694 (Q14694 whole entry): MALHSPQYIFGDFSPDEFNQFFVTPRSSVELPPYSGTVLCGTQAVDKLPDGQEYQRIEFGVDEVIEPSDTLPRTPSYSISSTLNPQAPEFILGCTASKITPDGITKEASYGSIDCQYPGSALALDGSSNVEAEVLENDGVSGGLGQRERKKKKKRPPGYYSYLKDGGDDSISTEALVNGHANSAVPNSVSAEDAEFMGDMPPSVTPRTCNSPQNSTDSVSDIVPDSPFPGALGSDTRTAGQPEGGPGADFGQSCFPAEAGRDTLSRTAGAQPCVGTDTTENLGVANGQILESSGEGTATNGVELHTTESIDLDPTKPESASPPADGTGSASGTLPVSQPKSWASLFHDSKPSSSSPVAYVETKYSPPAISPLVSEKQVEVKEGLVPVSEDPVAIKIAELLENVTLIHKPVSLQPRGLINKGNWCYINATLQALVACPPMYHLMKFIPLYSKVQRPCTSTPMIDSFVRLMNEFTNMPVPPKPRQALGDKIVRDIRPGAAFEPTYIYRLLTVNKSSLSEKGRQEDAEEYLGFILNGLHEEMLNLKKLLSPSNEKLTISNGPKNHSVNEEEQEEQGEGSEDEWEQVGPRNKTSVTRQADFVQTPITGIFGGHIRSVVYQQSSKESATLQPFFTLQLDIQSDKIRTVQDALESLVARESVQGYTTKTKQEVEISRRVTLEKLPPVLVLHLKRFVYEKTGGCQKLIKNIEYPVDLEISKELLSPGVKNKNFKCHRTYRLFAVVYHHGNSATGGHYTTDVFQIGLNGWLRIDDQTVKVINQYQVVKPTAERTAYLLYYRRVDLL

Caspase-7, P55210 = molecular target: T5, Caspase-7, P55210
T5 chain: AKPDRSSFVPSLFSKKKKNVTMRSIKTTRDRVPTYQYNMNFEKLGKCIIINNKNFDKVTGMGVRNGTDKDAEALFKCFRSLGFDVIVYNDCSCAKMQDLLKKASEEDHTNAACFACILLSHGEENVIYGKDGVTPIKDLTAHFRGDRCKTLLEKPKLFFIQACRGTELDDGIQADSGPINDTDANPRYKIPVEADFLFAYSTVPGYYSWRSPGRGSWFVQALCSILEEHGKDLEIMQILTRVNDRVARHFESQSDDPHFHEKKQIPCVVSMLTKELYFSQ

Caspase-8, Q14790 = molecular target: T6, Caspase-8, Q14790
T6 chain: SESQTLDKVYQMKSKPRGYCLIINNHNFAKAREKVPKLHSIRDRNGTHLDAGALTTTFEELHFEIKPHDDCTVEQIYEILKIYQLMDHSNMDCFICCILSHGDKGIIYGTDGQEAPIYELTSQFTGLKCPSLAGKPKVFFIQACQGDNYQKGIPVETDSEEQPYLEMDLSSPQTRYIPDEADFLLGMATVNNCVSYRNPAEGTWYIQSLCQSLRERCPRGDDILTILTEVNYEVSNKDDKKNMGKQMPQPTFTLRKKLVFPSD

[4] = molecular target: T7, Matrix metalloprotease 1, P03956
T7 chain: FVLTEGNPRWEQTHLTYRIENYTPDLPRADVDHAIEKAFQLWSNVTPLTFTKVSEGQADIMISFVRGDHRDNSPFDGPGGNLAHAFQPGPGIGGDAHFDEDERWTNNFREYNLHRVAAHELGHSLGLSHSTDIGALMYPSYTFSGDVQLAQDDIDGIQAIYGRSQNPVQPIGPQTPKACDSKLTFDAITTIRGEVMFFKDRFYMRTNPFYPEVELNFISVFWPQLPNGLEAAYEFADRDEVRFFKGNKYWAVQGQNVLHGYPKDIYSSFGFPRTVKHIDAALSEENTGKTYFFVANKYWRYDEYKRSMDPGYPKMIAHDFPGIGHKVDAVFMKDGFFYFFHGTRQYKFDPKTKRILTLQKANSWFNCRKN

Percentage inhibition (%) at 1 µM [1]: 0%
Percentage inhibition (%) at 10 µM [1]: 0%
Percentage inhibition (%) at 1 µM (Caspase-6, P55212): 6%
Percentage inhibition (%) at 10 µM (Caspase-6, P55212): -3%
Percentage inhibition (%) at 1 µM [2]: 0%
Percentage inhibition (%) at 10 µM [2]: -1%
Percentage inhibition (%) at 1 µM (DPP7, Q9UHL4): -1%
Percentage inhibition (%) at 10 µM (DPP7, Q9UHL4): -7%
Percentage inhibition (%) at 1 µM (DPP9, Q86TI2): -1%
Percentage inhibition (%) at 10 µM (DPP9, Q86TI2): -5%
Percentage inhibition (%) at 1 µM (Cathepsin L, P07711): 0%
Percentage inhibition (%) at 10 µM (Cathepsin L, P07711): -6%
% inhibition of control enzyme activity, compound at 10 µM (COX2(h) (human), P35354): -22%
Percentage inhibition (%) at 1 µM [3]: 1%
Percentage inhibition (%) at 10 µM [3]: -1%
Percentage inhibition (%) at 1 µM (Caspase-7, P55210): -1%
Percentage inhibition (%) at 10 µM (Caspase-7, P55210): -7%
Percentage inhibition (%) at 1 µM (Caspase-8, Q14790): 0%
Percentage inhibition (%) at 10 µM (Caspase-8, Q14790): -3%
Percentage inhibition (%) at 1 µM [4]: 1%
Percentage inhibition (%) at 10 µM [4]: -7%
B1: Hex-[Cys(tMeBn(DOTA-AET))-Pro-Pro-Thr-Gln-Phe-Cys]-OH (peptide)
peptide: Hex-CPPTQFC-OH
modifications: bridge 1-7; not fully specified (bridges); printed as Hex-[Cys(tMeBn(DOTA-AET))-Pro-Pro-Thr-Gln-Phe-Cys]-OH

B2: Hex-[Cys(tMeBn(DOTA-PP))-Pro-Pro-Thr-Gln-Phe-Cys]-Asp-NH2 (peptide)
peptide: Hex-CPPTQFCD-NH2
modifications: bridge 1-7; not fully specified (bridges); printed as Hex-[Cys(tMeBn(DOTA-PP))-Pro-Pro-Thr-Gln-Phe-Cys]-Asp-NH2
Percentage inhibition (%) at 1 µM [1]: 2%
Percentage inhibition (%) at 10 µM [1]: 15%
Percentage inhibition (%) at 1 µM (Caspase-6, P55212): 1%
Percentage inhibition (%) at 10 µM (Caspase-6, P55212): -1%
Percentage inhibition (%) at 1 µM [2]: 3%
Percentage inhibition (%) at 10 µM [2]: 7%
Percentage inhibition (%) at 1 µM (DPP7, Q9UHL4): 2%
Percentage inhibition (%) at 10 µM (DPP7, Q9UHL4): -3%
Percentage inhibition (%) at 1 µM (DPP9, Q86TI2): -1%
Percentage inhibition (%) at 10 µM (DPP9, Q86TI2): 0%
Percentage inhibition (%) at 1 µM (Cathepsin L, P07711): 3%
Percentage inhibition (%) at 10 µM (Cathepsin L, P07711): 6%
% inhibition of control enzyme activity, compound at 10 µM (COX2(h) (human), P35354): -14%
Percentage inhibition (%) at 1 µM [3]: -2%
Percentage inhibition (%) at 10 µM [3]: 5%
Percentage inhibition (%) at 1 µM (Caspase-7, P55210): -3%
Percentage inhibition (%) at 10 µM (Caspase-7, P55210): -3%
Percentage inhibition (%) at 1 µM (Caspase-8, Q14790): 0%
Percentage inhibition (%) at 10 µM (Caspase-8, Q14790): 0%
Percentage inhibition (%) at 1 µM [4]: -1%
Percentage inhibition (%) at 10 µM [4]: 2%

— patent publication US20230212549A1, “COMPOUNDS COMPRISING A […] LIGAND AND USE THEREOF” (priority 2021, published 2023)
